Experimental data as given in the supplement of paper PMC10065799, “High-throughput profiling of sequence recognition by tyrosine kinases and SH2 domains using bacterial peptide display” (eLife, 2023).

System: AncSZ
Assay: phosphorylation enrichment, bacterial display (enrichment ratio); higher = better substrate or ligand; peptides without Tyr show the background
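Also: 11-residue human phosphosite peptides and single-mutation variants displayed on the E. coli surface, counted by deep sequencing, each peptide's frequency after selection divided by its frequency in the unselected input library; frequency after pTyr selection over input frequency; kinase dosed for 20-30% of maximal phosphorylation in three min.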

Sequence | phosphorylation enrichment
YEDALYTVLHR [UNC13D_Y61] | 3.84
PQGVRYTFTID [DCX_Y103_I104T_YF] | 1.41
IFLADYRIMEG [ALOX12B_Y318_YF] | 0.689
RGDCMYAPLLG [AR_Y269] | 0.898
SGIFQYNIAKF [FOXL2_Y83_I84N_YF] | 0.786
ILLAGCLVMVI [SLC28A3_Y113_Y113C] | 1.24
HGDSAYHSQRH [ERBB3_Y1132_R1127H] | 1.2
KILGRYYETGS [PAX2_Y72] | 0.641
APGNAYGDAGF [SYP_Y250_D248N_YF] | 0.527
PKEQKYSFLQD [GH1_Y68_N73D] | 0.948
AMIADYMFWLG [SPATA16_Y290] | 2.24
RASDFYSQQMA [GBP6_Y334_A331S_YF] | 0.755
RESSGYLRLAF [MEP1A_Y481] | 1.46
FPILNYKDIRK [CFAP221_Y798_M795I] | 0.546
SSSGGYGGGYG [KRT19_Y61_A60G] | 0.456
VTSLKYSTSPF [BRIP1_Y916_YF] | 0.605
LLREWYLPDPY [SIX3_Y225_Q227P] | 0.888
WQLEIYRASRP [ERCC4_Y594_R589W] | 1.27
DRLASYPDKVR [KRT14_Y129_L130P] | 0.508
MSRDIYSTDYY [NTRK1_Y676] | 1.83
VLNKGYRMVVN [HINT1_Y94_G89V] | 0.557
GKSHIYFWTLE [EML2_Y230] | 1.22
KIVATYRLCSE [DNAH3_Y1586] | 1.06
GRRGQYVMPSE [TTC7A_Y396_L399P] | 0.586
KTTGGYAGGLS [KRT8_Y419_S417G] | 0.506
NHYKIYNLYAE [PTEN_Y68_C71Y] | 0.749
VEDQYYCVDCY [FHL1_Y208] | 5.02
DERQPYVHMNG [IGF1R_Y1346_A1347V] | 0.696
LVQAEYWHDRI [PPT1_Y185_P189R] | 1.16

Biological target: EPHB1 (UniProt P54762)
Sequence (P54762 whole entry, looked up): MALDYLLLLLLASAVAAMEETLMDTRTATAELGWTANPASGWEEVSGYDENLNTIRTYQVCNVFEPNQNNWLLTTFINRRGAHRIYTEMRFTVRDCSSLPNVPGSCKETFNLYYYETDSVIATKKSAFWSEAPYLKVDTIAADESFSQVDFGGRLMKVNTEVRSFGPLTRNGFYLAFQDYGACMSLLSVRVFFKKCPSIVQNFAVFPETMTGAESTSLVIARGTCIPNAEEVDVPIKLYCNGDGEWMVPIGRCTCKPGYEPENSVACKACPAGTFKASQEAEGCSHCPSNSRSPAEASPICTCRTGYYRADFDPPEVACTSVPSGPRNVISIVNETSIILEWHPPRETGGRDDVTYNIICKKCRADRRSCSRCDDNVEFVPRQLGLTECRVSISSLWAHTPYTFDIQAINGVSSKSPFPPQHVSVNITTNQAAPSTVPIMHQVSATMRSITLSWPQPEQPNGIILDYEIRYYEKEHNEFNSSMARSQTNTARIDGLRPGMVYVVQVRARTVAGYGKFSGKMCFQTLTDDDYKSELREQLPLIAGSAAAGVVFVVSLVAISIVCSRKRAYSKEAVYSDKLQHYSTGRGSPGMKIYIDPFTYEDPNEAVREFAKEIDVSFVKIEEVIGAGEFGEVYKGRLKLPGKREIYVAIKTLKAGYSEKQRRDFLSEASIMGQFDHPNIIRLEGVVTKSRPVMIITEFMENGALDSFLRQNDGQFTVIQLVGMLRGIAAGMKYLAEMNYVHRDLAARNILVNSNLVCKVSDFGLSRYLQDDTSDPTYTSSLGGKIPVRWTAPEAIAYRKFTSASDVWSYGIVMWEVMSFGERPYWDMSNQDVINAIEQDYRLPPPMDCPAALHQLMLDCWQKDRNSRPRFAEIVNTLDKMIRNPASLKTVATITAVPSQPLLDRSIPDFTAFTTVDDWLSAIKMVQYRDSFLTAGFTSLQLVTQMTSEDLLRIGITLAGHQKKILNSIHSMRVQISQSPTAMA
Assay: as above

Sequence | phosphorylation enrichment
YEDALYTVLHR [UNC13D_Y61] | 16.6
PQGVRYTFTID [DCX_Y103_I104T_YF] | 0.768
IFLADYRIMEG [ALOX12B_Y318_YF] | 0.454
RGDCMYAPLLG [AR_Y269] | 7.23
SGIFQYNIAKF [FOXL2_Y83_I84N_YF] | 0.59
ILLAGCLVMVI [SLC28A3_Y113_Y113C] | 0.607
HGDSAYHSQRH [ERBB3_Y1132_R1127H] | 0.63
KILGRYYETGS [PAX2_Y72] | 0.5
APGNAYGDAGF [SYP_Y250_D248N_YF] | 0.351
PKEQKYSFLQD [GH1_Y68_N73D] | 0.605
AMIADYMFWLG [SPATA16_Y290] | 7.43
RASDFYSQQMA [GBP6_Y334_A331S_YF] | 0.708
RESSGYLRLAF [MEP1A_Y481] | 1.08
FPILNYKDIRK [CFAP221_Y798_M795I] | 0.478
SSSGGYGGGYG [KRT19_Y61_A60G] | 0.326
VTSLKYSTSPF [BRIP1_Y916_YF] | 0.469
LLREWYLPDPY [SIX3_Y225_Q227P] | 0.541
WQLEIYRASRP [ERCC4_Y594_R589W] | 0.567
DRLASYPDKVR [KRT14_Y129_L130P] | 0.354
MSRDIYSTDYY [NTRK1_Y676] | 6.24
VLNKGYRMVVN [HINT1_Y94_G89V] | 0.362
GKSHIYFWTLE [EML2_Y230] | 0.588
KIVATYRLCSE [DNAH3_Y1586] | 0.631
GRRGQYVMPSE [TTC7A_Y396_L399P] | 0.356
KTTGGYAGGLS [KRT8_Y419_S417G] | 0.34
NHYKIYNLYAE [PTEN_Y68_C71Y] | 0.455
VEDQYYCVDCY [FHL1_Y208] | 1.02
DERQPYVHMNG [IGF1R_Y1346_A1347V] | 0.436
LVQAEYWHDRI [PPT1_Y185_P189R] | 0.684

Biological target: EPHB2 (UniProt P29323)
Sequence (P29323 whole entry, looked up): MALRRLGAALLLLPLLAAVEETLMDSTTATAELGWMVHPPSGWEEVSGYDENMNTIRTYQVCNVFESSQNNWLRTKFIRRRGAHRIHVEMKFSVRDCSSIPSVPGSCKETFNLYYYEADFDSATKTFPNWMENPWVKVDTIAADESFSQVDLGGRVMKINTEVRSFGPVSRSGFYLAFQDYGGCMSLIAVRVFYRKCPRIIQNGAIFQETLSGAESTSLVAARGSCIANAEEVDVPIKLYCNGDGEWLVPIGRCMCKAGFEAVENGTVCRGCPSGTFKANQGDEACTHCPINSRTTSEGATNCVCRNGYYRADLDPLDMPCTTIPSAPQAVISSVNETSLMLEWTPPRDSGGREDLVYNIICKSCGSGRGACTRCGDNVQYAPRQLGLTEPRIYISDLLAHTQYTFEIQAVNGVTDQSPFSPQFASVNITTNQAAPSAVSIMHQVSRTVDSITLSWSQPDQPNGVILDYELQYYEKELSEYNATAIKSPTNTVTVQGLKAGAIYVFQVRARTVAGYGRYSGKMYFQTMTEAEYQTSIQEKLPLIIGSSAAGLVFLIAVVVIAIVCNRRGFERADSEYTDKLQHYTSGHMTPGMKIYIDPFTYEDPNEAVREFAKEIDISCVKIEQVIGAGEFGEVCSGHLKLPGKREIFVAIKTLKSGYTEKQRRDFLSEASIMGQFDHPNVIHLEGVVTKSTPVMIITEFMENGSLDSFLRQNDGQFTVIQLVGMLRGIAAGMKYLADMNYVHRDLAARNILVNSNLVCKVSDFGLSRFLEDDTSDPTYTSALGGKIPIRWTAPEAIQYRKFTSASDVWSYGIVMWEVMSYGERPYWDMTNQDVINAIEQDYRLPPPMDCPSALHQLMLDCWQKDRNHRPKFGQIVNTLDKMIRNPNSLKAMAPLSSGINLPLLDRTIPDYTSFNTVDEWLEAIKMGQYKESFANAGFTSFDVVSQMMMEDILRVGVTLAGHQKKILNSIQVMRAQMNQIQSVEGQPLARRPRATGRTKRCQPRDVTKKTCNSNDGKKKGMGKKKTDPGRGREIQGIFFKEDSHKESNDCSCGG
Assay: as above

Sequence | phosphorylation enrichment
YEDALYTVLHR [UNC13D_Y61] | 15.9
PQGVRYTFTID [DCX_Y103_I104T_YF] | 1.04
IFLADYRIMEG [ALOX12B_Y318_YF] | 0.523
RGDCMYAPLLG [AR_Y269] | 8.4
SGIFQYNIAKF [FOXL2_Y83_I84N_YF] | 0.541
ILLAGCLVMVI [SLC28A3_Y113_Y113C] | 0.614
HGDSAYHSQRH [ERBB3_Y1132_R1127H] | 0.479
KILGRYYETGS [PAX2_Y72] | 0.586
APGNAYGDAGF [SYP_Y250_D248N_YF] | 0.313
PKEQKYSFLQD [GH1_Y68_N73D] | 0.693
AMIADYMFWLG [SPATA16_Y290] | 15.2
RASDFYSQQMA [GBP6_Y334_A331S_YF] | 0.683
RESSGYLRLAF [MEP1A_Y481] | 1.21
FPILNYKDIRK [CFAP221_Y798_M795I] | 0.487
SSSGGYGGGYG [KRT19_Y61_A60G] | 0.337
VTSLKYSTSPF [BRIP1_Y916_YF] | 0.507
LLREWYLPDPY [SIX3_Y225_Q227P] | 0.473
WQLEIYRASRP [ERCC4_Y594_R589W] | 0.628
DRLASYPDKVR [KRT14_Y129_L130P] | 0.356
MSRDIYSTDYY [NTRK1_Y676] | 8.84
VLNKGYRMVVN [HINT1_Y94_G89V] | 0.343
GKSHIYFWTLE [EML2_Y230] | 0.539
KIVATYRLCSE [DNAH3_Y1586] | 0.626
GRRGQYVMPSE [TTC7A_Y396_L399P] | 0.481
KTTGGYAGGLS [KRT8_Y419_S417G] | 0.473
NHYKIYNLYAE [PTEN_Y68_C71Y] | 0.641
VEDQYYCVDCY [FHL1_Y208] | 0.754
DERQPYVHMNG [IGF1R_Y1346_A1347V] | 0.5
LVQAEYWHDRI [PPT1_Y185_P189R] | 0.896

Biological target: FGFR1 (UniProt P11362)
Sequence (P11362 whole entry, looked up): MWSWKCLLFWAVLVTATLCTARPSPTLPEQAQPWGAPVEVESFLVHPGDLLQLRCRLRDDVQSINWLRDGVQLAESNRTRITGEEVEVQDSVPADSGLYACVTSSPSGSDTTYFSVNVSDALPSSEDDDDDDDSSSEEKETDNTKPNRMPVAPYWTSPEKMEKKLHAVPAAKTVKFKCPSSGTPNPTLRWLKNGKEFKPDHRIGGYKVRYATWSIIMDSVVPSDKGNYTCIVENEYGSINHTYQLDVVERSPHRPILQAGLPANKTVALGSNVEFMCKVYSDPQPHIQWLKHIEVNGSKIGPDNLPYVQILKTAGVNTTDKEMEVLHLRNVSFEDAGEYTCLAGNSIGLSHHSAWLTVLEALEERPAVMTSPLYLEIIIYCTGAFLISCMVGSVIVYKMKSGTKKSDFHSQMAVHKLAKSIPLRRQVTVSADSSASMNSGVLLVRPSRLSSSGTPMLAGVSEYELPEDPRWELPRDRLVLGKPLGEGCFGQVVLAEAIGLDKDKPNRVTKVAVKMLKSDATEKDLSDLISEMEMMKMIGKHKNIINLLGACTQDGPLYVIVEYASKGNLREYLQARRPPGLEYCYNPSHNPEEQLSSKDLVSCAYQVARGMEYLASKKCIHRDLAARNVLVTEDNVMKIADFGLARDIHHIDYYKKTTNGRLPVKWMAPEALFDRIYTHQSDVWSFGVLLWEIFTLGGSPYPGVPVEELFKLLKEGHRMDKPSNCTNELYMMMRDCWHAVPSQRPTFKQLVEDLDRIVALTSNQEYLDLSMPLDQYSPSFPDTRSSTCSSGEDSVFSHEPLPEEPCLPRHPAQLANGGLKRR
Assay: as above

Sequence | phosphorylation enrichment
YEDALYTVLHR [UNC13D_Y61] | 3.68
PQGVRYTFTID [DCX_Y103_I104T_YF] | 0.521
IFLADYRIMEG [ALOX12B_Y318_YF] | 0.814
RGDCMYAPLLG [AR_Y269] | 3.08
SGIFQYNIAKF [FOXL2_Y83_I84N_YF] | 0.486
ILLAGCLVMVI [SLC28A3_Y113_Y113C] | 0.422
HGDSAYHSQRH [ERBB3_Y1132_R1127H] | 0.808
KILGRYYETGS [PAX2_Y72] | 0.507
APGNAYGDAGF [SYP_Y250_D248N_YF] | 0.373
PKEQKYSFLQD [GH1_Y68_N73D] | 0.597
AMIADYMFWLG [SPATA16_Y290] | 12.2
RASDFYSQQMA [GBP6_Y334_A331S_YF] | 0.444
RESSGYLRLAF [MEP1A_Y481] | 0.593
FPILNYKDIRK [CFAP221_Y798_M795I] | 0.431
SSSGGYGGGYG [KRT19_Y61_A60G] | 0.408
VTSLKYSTSPF [BRIP1_Y916_YF] | 0.435
LLREWYLPDPY [SIX3_Y225_Q227P] | 0.636
WQLEIYRASRP [ERCC4_Y594_R589W] | 0.375
DRLASYPDKVR [KRT14_Y129_L130P] | 0.417
MSRDIYSTDYY [NTRK1_Y676] | 4.81
VLNKGYRMVVN [HINT1_Y94_G89V] | 0.392
GKSHIYFWTLE [EML2_Y230] | 0.8
KIVATYRLCSE [DNAH3_Y1586] | 0.571
GRRGQYVMPSE [TTC7A_Y396_L399P] | 0.433
KTTGGYAGGLS [KRT8_Y419_S417G] | 0.454
NHYKIYNLYAE [PTEN_Y68_C71Y] | 0.461
VEDQYYCVDCY [FHL1_Y208] | 12
DERQPYVHMNG [IGF1R_Y1346_A1347V] | 0.592
LVQAEYWHDRI [PPT1_Y185_P189R] | 3.27
